From article PMC9226502 come the findings set out here.

B1: MutL^WT (Escherichia coli MutL protein, wild type) [Escherichia coli] / MutS [not stated] (parent)
chain 1: MPIQVLPPQLANQIAAGEVVERPASVVKELVENSLDAGATRIDIDIERGGAKLIRIRDNGCGIKKDELALALARHATSKIASLDDLEAIISLGFRGEALASISSVSRLTLTSRTAEQQEAWQAYAEGRDMNVTVKPAAHPVGTTLEVLDLFYNTPARRKFLRTEKTEFNHIDEIIRRIALARFDVTINLSHNGKIVRQYRAVPEGGQKERRLGAICGTAFLEQALAIEWQHGDLTLRGWVADPNHTTPALAEIQYCYVNGRMMRDRLINHAIRQACEDKLGADQQPAFVLYLEIDPHQVDVNVHPAKHEVRFHQSRLVHDFIYQGVLSVLQQQLETPLPLDDEPQPAPRSIPENRVAAGRNHFAEPAAREPVAPRYTPAPASGSRPAAPWPNAQPGYQKQQGEVYRQLLQTPAPMQKLKAPEPQEPALAANSQSFGRVLTIVHSDCALLERDGNISLLSLPVAERWLRQAQLTPGEAPVCAQPLLIPLRLKVSAEEKSALEKAQSALAELGIDFQSDAQHVTIRAVPLPLRQQNLQILIPELIGYLAKQSVFEPGNIAQWIARNLMSEHAQWSMAQAITLLADVERLCPQLVKTPPGGLLQSVDLHPAIKALKDE
chain 2: MSAIENFDAHTPMMQQYLRLKAQHPEILLFYRMGDFYELFYDDAKRASQLLDISLTKRGASAGEPIPMAGIPYHAVENYLAKLVNQGESVAICEQIGDPATSKGPVERKVVRIVTPGTISDEALLQERQDNLLAAIWQDSKGFGYATLDISSGRFRLSEPADRETMAAELQRTNPAELLYAEDFAEMSLIEGRRGLRRRPLWEFEIDTARQQLNLQFGTRDLVGFGVENAPRGLCAAGCLLQYAKDTQRTTLPHIRSITMEREQDSIIMDAATRRNLEITQNLAGGAENTLASVLDCTVTPMGSRMLKRWLHMPVRDTRVLLERQQTIGALQDFTAGLQPVLRQVGDLERILARLALRTARPRDLARMRHAFQQLPELRAQLETVDSAPVQALREKMGEFAELRDLLERAIIDTPPVLVRDGGVIASGYNEELDEWRALADGATDYLERLEVRERERTGLDTLKVGFNAVHGYYIQISRGQSHLAPINYMRRQTLKNAERYIIPELKEYEDKVLTSKGKALALEKQLYEELFDLLLPHLEALQQSASALAELDVLVNLAERAYTLNYTCPTFIDKPGIRITEGRHPVVEQVLNEPFIANPLNLSPQRRMLIITGPNMGGKSTYMRQTALIALMAYIGSYVPAQKVEIGPIDRIFTRVGAADDLASGRSTFMVEMTETANILHNATEYSLVLMDEIGRGTSTYDGLSLAWACAENLANKIKALTLFATHYFELTQLPEKMEGVANVHLDALEHGDTIAFMHSVQDGAASKSYGLAVAALAGVPKEVIKRARQKLRELESISPNAAATQVDGTQMSLLSVPEETSPAVEALENLDPDSLTPRQALEWIYRLKSLV

The variants in the assay derive from B1. As to the kind of experiment: BLI. The conditions noted are these: with MutS, 100 nM MutS, end-blocked DNA substrate with a single mismatch, read off a plot; for response: top green curve (taken as 150 nM MutL), peak at about 200 s, parent: 3.3.

Turning to chain 1 H270A H319A, the response stood at 2.1 nm. The koff (19 nM MutL, parent: 0.0053) turned out to be 0.0096 s⁻¹. Further, the koff (37 nM MutL, parent: 0.0032) was found to be 0.0092 s⁻¹. For the same variant, the koff (75 nM MutL, parent: 0.0031) turned out to be 0.0082 s⁻¹. For the same variant, under “150 nM MutL, parent: 0.0033”, the koff worked out at 0.0075 s⁻¹.

chain 1 H319A: the response worked out at 2.7 nm. Also, the koff (19 nM MutL, parent: 0.0053) came out at 0.006 s⁻¹. Moreover, the off-rate constant (koff) (37 nM MutL, parent: 0.0032) was found to be 0.0046 s⁻¹. Further, the koff (75 nM MutL, parent: 0.0031) worked out at 0.0036 s⁻¹. Also, the koff (150 nM MutL, parent: 0.0033) was determined as 0.0038 s⁻¹.

For chain 1 H270A, the response came out at 2.7 nm. For the setting “19 nM MutL, parent: 0.0053”, the koff turned out to be 0.0063 s⁻¹. Moreover, the koff (37 nM MutL, parent: 0.0032) came out at 0.0047 s⁻¹. Besides, the koff (75 nM MutL, parent: 0.0031) amounted to 0.0038 s⁻¹. Besides, the koff (150 nM MutL, parent: 0.0033) was 0.0035 s⁻¹.
